Read-outs that look alike come from different tables or passages of the source. Numbered stars: 1 amine (or outer) side, 2 acyl side, 3 side chain; on linkers, the order of the positions; unused ones are H or OH. Bridge positions count the residues as written; N and C are the ends. Square brackets hold non-standard residues; d marks the D form. * marks the point of attachment. Ser(Bzl) = O-benzyl-serine, O=C([C@H](COCc1ccccc1)N[*:1])[*:2]; Pro(trans-4-NH2) = O=C([C@@H]1C[C@@H](N[*:3])CN1[*:1])[*:2]; Met(O2) = CS(=O)(=O)CC[C@H](N)C(=O)O; Hyp = O=C(O)[C@@H]1C[C@@H](O)CN1; Orn = NCCC[C@H](N)C(=O)O; Dab = NCC[C@H](N)C(=O)O; NHcPr = C1CC1N*
Assays:
[1] = molecular target: T1, human melanocortin-4 receptor (recombinant hMC4-R) (human, UniProt P32245 1-332); assay: cell-based or functional assay
[2] = molecular target: T1, human melanocortin-4 receptor …; assay: competition with labelled NDP-α-MSH ([I125] or Eu), hMC4-R HEK-293 membranes
Protocol: After incubation for 60 minutes at 37° C., the assay mixture was filtered and the membranes washed three times with ice-cold buffer. Filters were dried and counted in a gamma counter for bound radioactivity. […] Maximal specific binding (100%) was defined as the difference in radioactivity (cpm) bound to cell membranes in the absence and presence of 1 μM NDP-α-MSH. […] Ki values for test peptides of the present invention were determined using Graph-Pad Prism® curve-fitting software.
After incubation for 90 minutes at 37° C., the reaction was stopped by filtration over AcroWell 96-well filter plates (Pall Life Sciences). The filter plates were washed 4 times with 200 μL of ice-cold phosphate-buffered saline. DELFIA Enhancement solution (PerkinElmer Life Sciences) was added to each well. The plates were incubated on a shaker for 15 minutes and read at 340 nm excitation and 615 nm emission wavelengths. Each assay was conducted in duplicate and mean values were utilized. Ki values were determined by curve-fitting with Graph-Pad Prism® software using a one-site fixed-slope competition binding model.

[3] = molecular target: T1, human melanocortin-4 receptor …; assay: cell-based or functional assay; remark: listed apart in the source

T1 sequence (P32245 whole entry): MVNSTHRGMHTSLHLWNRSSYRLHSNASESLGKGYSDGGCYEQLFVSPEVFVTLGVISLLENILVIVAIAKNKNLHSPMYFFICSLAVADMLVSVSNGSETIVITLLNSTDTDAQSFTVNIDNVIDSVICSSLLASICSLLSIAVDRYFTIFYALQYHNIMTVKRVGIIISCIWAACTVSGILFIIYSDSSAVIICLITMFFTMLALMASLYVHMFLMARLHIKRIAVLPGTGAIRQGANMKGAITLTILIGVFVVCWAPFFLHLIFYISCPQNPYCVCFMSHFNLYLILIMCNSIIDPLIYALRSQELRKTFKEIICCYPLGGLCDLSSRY

Binder	Emax (%), cAMP [1]	Ec50 (nM), cAMP [1]	Ki [2]	Emax (%), cAMP [3]
Ac-RE[Orn][dF]RW[Orn]-OH (lactam 2-7) [Peptide No. 7: Ac-Arg-cyclo(Glu-Orn-D-Phe-Arg-Trp-Orn)-OH]	92%	–	–	–
Ac-REQ[dF]RW[Orn]-NHcPr (lactam 2-7) [Peptide No. 19: Ac-Arg-cyclo(Glu-Gln-D-Phe-Arg-Trp-Orn)-NH-cycProp]	91%	–	–	–
Ac-RD[Dab](Ac)[dF]RWK-NH2 (lactam 2-7; SMILES CC(=O)NCC[C@@H]1NC(=O)[C@@H](NC(=O)[C@H](CCCNC(=N)N)NC(C)=O)CC(=O)NCCCC[C@@H](C(N)=O)NC(=O)[C@H](Cc2c[nH]c3ccccc23)NC(=O)[C@H](CCCNC(=N)N)NC(=O)[C@@H](Cc2ccccc2)NC1=O) [Asp...Lys analog of peptide No. 18: Ac-Arg-cyclo(Asp-Dab(Acetyl)-D-Phe-Arg-Trp-Lys)-NH2]	69%	–	–	–
XEHFRWX (N-terminal acetyl; Nle at 1; D-Phe at 4; Orn at 7; side-chain lactam Glu2-Orn7; C-terminal amide (-NH2)) [Peptide No. 2: Ac-Nle-cyclo(Glu-His-D-Phe-Arg-Trp-Orn)-NH2]	93%	0.1 nM	0.1 nM	–
RDXFRWK (N-terminal acetyl; Cit (citrulline) at 3; D-Phe at 4; side-chain lactam Asp2-Lys7; C-terminal amide (-NH2)) [Asp...Lys analog of peptide No. 15: Ac-Arg-cyclo(Asp-Cit-D-Phe-Arg-Trp-Lys)-NH2]	69%	–	–	–
Ac-[dR]DH[dF]RWK-NH2 (lactam 2-7) [Asp...Lys analog of peptide No. 39: Ac-D-Arg-cyclo(Asp-His-D-Phe-Arg-Trp-Lys)-NH2]	–	–	–	89%
Ac-RE[Orn][dF]RW[Orn]-NH2 (lactam 2-7) [Peptide No. 8: Ac-Arg-cyclo(Glu-Orn-D-Phe-Arg-Trp-Orn)-NH2]	95%	0.4 nM	9 nM	–
Ac-DQ[dF]RWK-NH2 (lactam 1-6; SMILES CC(=O)N[C@H]1CC(=O)NCCCC[C@@H](C(N)=O)NC(=O)[C@H](Cc2c[nH]c3ccccc23)NC(=O)[C@H](CCCNC(=N)N)NC(=O)[C@@H](Cc2ccccc2)NC(=O)[C@H](CCC(N)=O)NC1=O, also called Peptide Structure (Asp...Lys) in the row of No. 21) [Asp...Lys analog of peptide No. 21: Ac-cyclo(Asp-Gln-D-Phe-Arg-Trp-Lys)-NH2]	35%	148 nM	99 nM	–
Ac-REQ[dF]RW[Orn]-OH (lactam 2-7) [Peptide No. 11: Ac-Arg-cyclo(Glu-Gln-D-Phe-Arg-Trp-Orn)-OH]	81%	–	–	–
Ac-REN[dF]RW[Orn]-OH (lactam 2-7) [Peptide No. 20: Ac-Arg-cyclo(Glu-Asn-D-Phe-Arg-Trp-Orn)-OH]	76%	12 nM	167 nM	–
Ac-RE[Met(O2)][dF]RW[Orn]-NH2 (lactam 2-7) [Peptide No. 13: Ac-Arg-cyclo(Glu-Met(O2)-D-Phe-Arg-Trp-Orn)-NH2]	71%	5 nM	–	–
Ac-REH[dF]RW[Orn]-NH2 (lactam 2-7) [Peptide No. 4: Ac-Arg-cyclo(Glu-His-D-Phe-Arg-Trp-Orn)-NH2]	83%	0.2 nM	1 nM	–
Ac-RE[Hyp][dF]RW[Orn]-NH2 (lactam 2-7) [Peptide No. 14: Ac-Arg-cyclo(Glu-Hyp-D-Phe-Arg-Trp-Orn)-NH2]	104%	–	–	–
Ac-RE[Pro(trans-4-NH2)][dF]RW[Orn]-NH2 (lactam 2-7) [Peptide No. 32: Ac-Arg-cyclo(Glu-Pro(4R-NH2)-D-Phe-Arg-Trp-Orn)-NH2]	55%	–	6 nM	–
Ac-RE[Ser(Bzl)][dF]RW[Orn]-OH (lactam 2-7) [Peptide No. 17: Ac-Arg-cyclo(Glu-Ser(Bzl)-D-Phe-Arg-Trp-Orn)-OH]	55%	–	6 nM	–
Ac-RER[dF]RW[Orn]-NH2 (lactam 2-7) [Peptide No. 10: Ac-Arg-cyclo(Glu-Arg-D-Phe-Arg-Trp-Orn)-NH2]	98%	–	–	–
Ac-REK[dF]RW[Orn]-NH2 (lactam 2-7) [Peptide No. 16: Ac-Arg-cyclo(Glu-Lys-D-Phe-Arg-Trp-Orn)-NH2]	104%	–	15 nM	–
Ac-REN[dF]RW[Orn]-NH2 (lactam 2-7) [Peptide No. 34: Ac-Arg-cyclo(Glu-Asn-D-Phe-Arg-Trp-Orn)-NH2]	91%	0.4 nM	6 nM	–
Ac-REH[dF]RW[Orn]-OH (lactam 2-7) [Peptide No. 3: Ac-Arg-cyclo(Glu-His-D-Phe-Arg-Trp-Orn)-OH]	83%	0.7 nM	24 nM	–
Ac-RER[dF]RW[Orn]-OH (lactam 2-7) [Peptide No. 9: Ac-Arg-cyclo(Glu-Arg-D-Phe-Arg-Trp-Orn)-OH]	82%	–	–	–
Ac-RE[Dab][dF]RW[Orn]-NH2 (lactam 2-7) [Peptide No. 6: Ac-Arg-cyclo(Glu-Dab-D-Phe-Arg-Trp-Orn)-NH2]	94%	0.3 nM	–	–
Ac-REQ[dF]RW[Orn]-NH2 (lactam 2-7) [Peptide No. 12: Ac-Arg-cyclo(Glu-Gln-D-Phe-Arg-Trp-Orn)-NH2]	96%	–	–	–
Ac-R[Orn][Dab][dF]RWE-OH (lactam 2-7) [Peptide No. 42: Ac-Arg-cyclo(Orn-Dab-D-Phe-Arg-Trp-Glu)-OH]	–	–	–	100%
